# Assay results published in patent US20060073508.
# System: hemagglutinin epitope-tagged Del301-303 human alpha-2B adrenergic receptor
substance,measurement,value
GRK2 (βARK1),agonist-promoted phosphorylation relative to wild-type,the Del301-303 receptor displayed -56% of wild-type phosphorylation
same,basal phosphorylation of the receptor,Basal phosphorylation was equivalent between the two receptors.
